Test results: patent US20250242041A1 (Seagen, published 2025)

T1: human αvβ6 on 293F:huβ6 cells (human, UniProt P06756 31-1048; P18564 22-788)
T1 chain 1: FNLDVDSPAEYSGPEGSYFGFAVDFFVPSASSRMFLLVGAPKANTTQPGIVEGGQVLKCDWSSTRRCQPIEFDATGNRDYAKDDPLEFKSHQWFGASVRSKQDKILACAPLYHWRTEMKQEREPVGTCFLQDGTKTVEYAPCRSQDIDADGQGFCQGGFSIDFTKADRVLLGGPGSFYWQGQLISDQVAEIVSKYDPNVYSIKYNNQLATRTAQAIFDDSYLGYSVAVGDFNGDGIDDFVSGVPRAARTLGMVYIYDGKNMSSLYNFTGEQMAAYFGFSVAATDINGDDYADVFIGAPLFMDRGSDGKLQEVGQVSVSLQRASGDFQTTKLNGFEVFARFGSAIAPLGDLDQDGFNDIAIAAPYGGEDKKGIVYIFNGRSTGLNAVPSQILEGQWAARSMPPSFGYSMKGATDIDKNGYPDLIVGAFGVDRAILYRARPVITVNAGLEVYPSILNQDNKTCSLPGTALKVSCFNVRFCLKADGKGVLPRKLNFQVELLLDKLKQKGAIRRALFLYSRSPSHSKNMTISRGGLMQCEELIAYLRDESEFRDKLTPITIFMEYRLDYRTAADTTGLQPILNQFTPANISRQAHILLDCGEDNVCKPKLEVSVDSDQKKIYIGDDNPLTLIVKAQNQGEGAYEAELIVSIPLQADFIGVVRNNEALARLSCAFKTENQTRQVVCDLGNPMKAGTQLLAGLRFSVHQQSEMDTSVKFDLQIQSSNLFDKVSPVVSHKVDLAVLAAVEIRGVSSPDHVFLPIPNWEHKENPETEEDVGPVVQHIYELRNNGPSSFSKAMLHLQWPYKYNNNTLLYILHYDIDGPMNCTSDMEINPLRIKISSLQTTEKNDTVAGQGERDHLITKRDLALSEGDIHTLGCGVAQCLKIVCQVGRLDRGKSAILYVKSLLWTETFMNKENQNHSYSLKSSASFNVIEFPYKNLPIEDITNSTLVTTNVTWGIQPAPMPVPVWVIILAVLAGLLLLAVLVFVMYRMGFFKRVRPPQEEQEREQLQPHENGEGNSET
T1 chain 2: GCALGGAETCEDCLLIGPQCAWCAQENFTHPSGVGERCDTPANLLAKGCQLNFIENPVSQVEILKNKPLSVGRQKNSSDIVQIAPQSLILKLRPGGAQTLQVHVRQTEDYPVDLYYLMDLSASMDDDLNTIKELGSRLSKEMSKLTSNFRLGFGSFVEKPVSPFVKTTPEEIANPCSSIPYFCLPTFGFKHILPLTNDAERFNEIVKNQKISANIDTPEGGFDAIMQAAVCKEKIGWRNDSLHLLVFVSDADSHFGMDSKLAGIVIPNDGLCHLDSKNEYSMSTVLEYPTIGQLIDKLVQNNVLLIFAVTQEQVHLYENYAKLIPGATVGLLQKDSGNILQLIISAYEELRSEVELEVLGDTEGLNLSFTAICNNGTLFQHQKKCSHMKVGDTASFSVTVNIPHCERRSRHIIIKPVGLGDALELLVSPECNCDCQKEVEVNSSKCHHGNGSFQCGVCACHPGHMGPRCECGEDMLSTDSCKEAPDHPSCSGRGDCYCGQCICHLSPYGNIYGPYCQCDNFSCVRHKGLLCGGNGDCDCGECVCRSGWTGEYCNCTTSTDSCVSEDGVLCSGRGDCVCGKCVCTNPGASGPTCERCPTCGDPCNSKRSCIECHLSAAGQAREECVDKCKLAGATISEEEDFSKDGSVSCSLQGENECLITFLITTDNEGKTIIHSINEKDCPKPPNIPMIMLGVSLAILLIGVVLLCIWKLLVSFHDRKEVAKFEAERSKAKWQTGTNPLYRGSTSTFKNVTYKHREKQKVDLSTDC


Molecular target: T1, human αvβ6 on 293F:huβ6 cells
Test: competition binding on 293F cells; 2nM m2A2-AF647 competitor

Binder | EC50 [nM]
h2A2 HCLA (antibody, V domains shown) VH: QFQLVQSGAEVKKPGASVKVSCKASGYSFTDYNVNWVRQAPGQGLEWIGVINPKYGTTRYNQKFKGRATLTVDKSTSTAYMELSSLRSEDTAVYYCTRGLNAWDYWGQGTLVTVSS VL: DIQMTQSPSSLSASVGDRVTITCGASENIYGALNWYQQKPGKAPKLLIYGATNLADGVPSRFSGSGSGTDFTFTISSLQPEDIATYYCQNVLTTPYTFGQGTKLEIKR | 74
h2A2 HDLA (antibody, V domains shown) VH: QFQLVQSGAEVKKPGASVKVSCKASGYSFTDYNVNWVRQAPGQGLEWIGVINPKYGTTRYNQKFKGRATLTVDKPTSTAYMELSSLRSEDTAVYYCTRGLNAWDYWGQGTLVTVSS VL: DIQMTQSPSSLSASVGDRVTITCGASENIYGALNWYQQKPGKAPKLLIYGATNLADGVPSRFSGSGSGTDFTFTISSLQPEDIATYYCQNVLTTPYTFGQGTKLEIKR | 147
h2A2 HALA (antibody, V domains shown) VH: QFQLVQSGAEVKKPGASVKVSCKASGYSFTDYNVNWVRQAPGQGLEWMGVINPKYGTTRYNQKFKGRVTMTRDTSTSTVYMELSSLRSEDTAVYYCTRGLNAWDYWGQGTLVTVSS VL: DIQMTQSPSSLSASVGDRVTITCGASENIYGALNWYQQKPGKAPKLLIYGATNLADGVPSRFSGSGSGTDFTFTISSLQPEDIATYYCQNVLTTPYTFGQGTKLEIKR | 74
h2A2 HDLB (antibody, V domains shown) VH: QFQLVQSGAEVKKPGASVKVSCKASGYSFTDYNVNWVRQAPGQGLEWIGVINPKYGTTRYNQKFKGRATLTVDKPTSTAYMELSSLRSEDTAVYYCTRGLNAWDYWGQGTLVTVSS VL: DIQMTQSPSSLSASVGDRVTITCGASENIYGALNWYQQKPGKAPKLLIYGATNLADGVPSRFSGSGSGRDYTFTISSLQPEDIATYYCQNVLTTPYTFGQGTKLEIKR | 6
h2A2 HCLB (antibody, V domains shown) VH: QFQLVQSGAEVKKPGASVKVSCKASGYSFTDYNVNWVRQAPGQGLEWIGVINPKYGTTRYNQKFKGRATLTVDKSTSTAYMELSSLRSEDTAVYYCTRGLNAWDYWGQGTLVTVSS VL: DIQMTQSPSSLSASVGDRVTITCGASENIYGALNWYQQKPGKAPKLLIYGATNLADGVPSRFSGSGSGRDYTFTISSLQPEDIATYYCQNVLTTPYTFGQGTKLEIKR | 3
h2A2 HBLA (antibody, V domains shown) VH: QFQLVQSGAEVKKPGASVKVSCKASGYSFTDYNVNWVRQAPGQGLEWMGVINPKYGTTRYNQKFKGRVTMTRDTPTSTVYMELSSLRSEDTAVYYCTRGLNAWDYWGQGTLVTVSS VL: DIQMTQSPSSLSASVGDRVTITCGASENIYGALNWYQQKPGKAPKLLIYGATNLADGVPSRFSGSGSGTDFTFTISSLQPEDIATYYCQNVLTTPYTFGQGTKLEIKR | 85
h2A2 HBLB (antibody, V domains shown) VH: QFQLVQSGAEVKKPGASVKVSCKASGYSFTDYNVNWVRQAPGQGLEWMGVINPKYGTTRYNQKFKGRVTMTRDTPTSTVYMELSSLRSEDTAVYYCTRGLNAWDYWGQGTLVTVSS VL: DIQMTQSPSSLSASVGDRVTITCGASENIYGALNWYQQKPGKAPKLLIYGATNLADGVPSRFSGSGSGRDYTFTISSLQPEDIATYYCQNVLTTPYTFGQGTKLEIKR | 9
c2A2 (antibody, V domains shown) VH: EFQLQQSGPELVKPGASVKISCKASGYSFTDYNVNWVKQSNGKSLEWIGVINPKYGTTRYNQKFKGKATLTVDKPSSTAYMQLNSLTSEDSAVYYCTRGLNAWDYWGQGASVTVSS VL: DIQMTQSPASLSASVGETVTITCGASENIYGALNWYQRKQGKSPQLLIYGATNLADGMSSRFSGSGSGRQYSFKISSLHPDDVATYYCQNVLTTPYTFGGGTKLEIK | 4

Molecular target: T1, human αvβ6 on 293F:huβ6 cells
Test: as above
Remark: another data set of the same source

Binder | EC50 [nM]
h2A2 HALC (antibody, V domains shown) VH: QFQLVQSGAEVKKPGASVKVSCKASGYSFTDYNVNWVRQAPGQGLEWMGVINPKYGTTRYNQKFKGRVTMTRDTSTSTVYMELSSLRSEDTAVYYCTRGLNAWDYWGQGTLVTVSS VL: DIQMTQSPSSLSASVGDRVTITCGASENIYGALNWYQQKPGKAPKLLIYGATNLATGVPSRFSGSGSGRDYTFTISSLQPEDIATYYCQNVLTTPYTFGQGTKLEIKR | 9
h2A2 HALE (antibody, V domains shown) VH: QFQLVQSGAEVKKPGASVKVSCKASGYSFTDYNVNWVRQAPGQGLEWMGVINPKYGTTRYNQKFKGRVTMTRDTSTSTVYMELSSLRSEDTAVYYCTRGLNAWDYWGQGTLVTVSS VL: DIQMTQSPSSLSASVGDRVTITCQASENIYGALNWYQQKPGKAPKLLIYGATNLADGVPSRFSGSGSGRDYTFTISSLQPEDIATYYCQNVLTTPYTFGQGTKLEIKR | 5
h2A2 HALD (antibody, V domains shown) VH: QFQLVQSGAEVKKPGASVKVSCKASGYSFTDYNVNWVRQAPGQGLEWMGVINPKYGTTRYNQKFKGRVTMTRDTSTSTVYMELSSLRSEDTAVYYCTRGLNAWDYWGQGTLVTVSS VL: DIQMTQSPSSLSASVGDRVTITCGASENIYGALNWYQQKPGKAPKLLIYGATNLADGVPSRFSGSGSGTDYTFTISSLQPEDIATYYCQNVLTTPYTFGQGTKLEIKR | 12
h2A2 HCLC (antibody, V domains shown) VH: QFQLVQSGAEVKKPGASVKVSCKASGYSFTDYNVNWVRQAPGQGLEWIGVINPKYGTTRYNQKFKGRATLTVDKSTSTAYMELSSLRSEDTAVYYCTRGLNAWDYWGQGTLVTVSS VL: DIQMTQSPSSLSASVGDRVTITCGASENIYGALNWYQQKPGKAPKLLIYGATNLATGVPSRFSGSGSGRDYTFTISSLQPEDIATYYCQNVLTTPYTFGQGTKLEIKR | 3
h2A2 HCLD (antibody, V domains shown) VH: QFQLVQSGAEVKKPGASVKVSCKASGYSFTDYNVNWVRQAPGQGLEWIGVINPKYGTTRYNQKFKGRATLTVDKSTSTAYMELSSLRSEDTAVYYCTRGLNAWDYWGQGTLVTVSS VL: DIQMTQSPSSLSASVGDRVTITCGASENIYGALNWYQQKPGKAPKLLIYGATNLADGVPSRFSGSGSGTDYTFTISSLQPEDIATYYCQNVLTTPYTFGQGTKLEIKR | 5
h2A2 HALF (antibody, V domains shown) VH: QFQLVQSGAEVKKPGASVKVSCKASGYSFTDYNVNWVRQAPGQGLEWMGVINPKYGTTRYNQKFKGRVTMTRDTSTSTVYMELSSLRSEDTAVYYCTRGLNAWDYWGQGTLVTVSS VL: DIQMTQSPSSLSASVGDRVTITCQASENIYGALNWYQQKPGKAPKLLIYGATNLATGVPSRFSGSGSGTDYTFTISSLQPEDIATYYCQNVLTTPYTFGQGTKLEIKR | 14
h2A2 HALH (antibody, V domains shown) VH: QFQLVQSGAEVKKPGASVKVSCKASGYSFTDYNVNWVRQAPGQGLEWMGVINPKYGTTRYNQKFKGRVTMTRDTSTSTVYMELSSLRSEDTAVYYCTRGLNAWDYWGQGTLVTVSS VL: DIQMTQSPSSLSASVGDRVTITCGASENIYGALNWYQQKPGKAPKLLIYGATNLADGVPSRFSGSGSGRDFTFTISSLQPEDIATYYCQNVLTTPYTFGQGTKLEIKR | 46
h2A2 HCLF (antibody, V domains shown) VH: QFQLVQSGAEVKKPGASVKVSCKASGYSFTDYNVNWVRQAPGQGLEWIGVINPKYGTTRYNQKFKGRATLTVDKSTSTAYMELSSLRSEDTAVYYCTRGLNAWDYWGQGTLVTVSS VL: DIQMTQSPSSLSASVGDRVTITCQASENIYGALNWYQQKPGKAPKLLIYGATNLATGVPSRFSGSGSGTDYTFTISSLQPEDIATYYCQNVLTTPYTFGQGTKLEIKR | 6
h2A2 HCLB (antibody, V domains shown) VH: QFQLVQSGAEVKKPGASVKVSCKASGYSFTDYNVNWVRQAPGQGLEWIGVINPKYGTTRYNQKFKGRATLTVDKSTSTAYMELSSLRSEDTAVYYCTRGLNAWDYWGQGTLVTVSS VL: DIQMTQSPSSLSASVGDRVTITCGASENIYGALNWYQQKPGKAPKLLIYGATNLADGVPSRFSGSGSGRDYTFTISSLQPEDIATYYCQNVLTTPYTFGQGTKLEIKR | 3
c2A2 (antibody, V domains shown) VH: EFQLQQSGPELVKPGASVKISCKASGYSFTDYNVNWVKQSNGKSLEWIGVINPKYGTTRYNQKFKGKATLTVDKPSSTAYMQLNSLTSEDSAVYYCTRGLNAWDYWGQGASVTVSS VL: DIQMTQSPASLSASVGETVTITCGASENIYGALNWYQRKQGKSPQLLIYGATNLADGMSSRFSGSGSGRQYSFKISSLHPDDVATYYCQNVLTTPYTFGGGTKLEIK | 3
